Measured values: US20220119490A1 (Genentech, published 2022)

Experiments:
[1] = target: T1, PTPRD R561Q variant extracellular domain (human, UniProt P23468 21-1265); test: extracellular interaction screen: pentameric PTPRD variant ECD on ECD-Fc prey (FIG. 5L)
T1 construct: extracellular domain; also called FN3 mutant
T1 sequence (looked up): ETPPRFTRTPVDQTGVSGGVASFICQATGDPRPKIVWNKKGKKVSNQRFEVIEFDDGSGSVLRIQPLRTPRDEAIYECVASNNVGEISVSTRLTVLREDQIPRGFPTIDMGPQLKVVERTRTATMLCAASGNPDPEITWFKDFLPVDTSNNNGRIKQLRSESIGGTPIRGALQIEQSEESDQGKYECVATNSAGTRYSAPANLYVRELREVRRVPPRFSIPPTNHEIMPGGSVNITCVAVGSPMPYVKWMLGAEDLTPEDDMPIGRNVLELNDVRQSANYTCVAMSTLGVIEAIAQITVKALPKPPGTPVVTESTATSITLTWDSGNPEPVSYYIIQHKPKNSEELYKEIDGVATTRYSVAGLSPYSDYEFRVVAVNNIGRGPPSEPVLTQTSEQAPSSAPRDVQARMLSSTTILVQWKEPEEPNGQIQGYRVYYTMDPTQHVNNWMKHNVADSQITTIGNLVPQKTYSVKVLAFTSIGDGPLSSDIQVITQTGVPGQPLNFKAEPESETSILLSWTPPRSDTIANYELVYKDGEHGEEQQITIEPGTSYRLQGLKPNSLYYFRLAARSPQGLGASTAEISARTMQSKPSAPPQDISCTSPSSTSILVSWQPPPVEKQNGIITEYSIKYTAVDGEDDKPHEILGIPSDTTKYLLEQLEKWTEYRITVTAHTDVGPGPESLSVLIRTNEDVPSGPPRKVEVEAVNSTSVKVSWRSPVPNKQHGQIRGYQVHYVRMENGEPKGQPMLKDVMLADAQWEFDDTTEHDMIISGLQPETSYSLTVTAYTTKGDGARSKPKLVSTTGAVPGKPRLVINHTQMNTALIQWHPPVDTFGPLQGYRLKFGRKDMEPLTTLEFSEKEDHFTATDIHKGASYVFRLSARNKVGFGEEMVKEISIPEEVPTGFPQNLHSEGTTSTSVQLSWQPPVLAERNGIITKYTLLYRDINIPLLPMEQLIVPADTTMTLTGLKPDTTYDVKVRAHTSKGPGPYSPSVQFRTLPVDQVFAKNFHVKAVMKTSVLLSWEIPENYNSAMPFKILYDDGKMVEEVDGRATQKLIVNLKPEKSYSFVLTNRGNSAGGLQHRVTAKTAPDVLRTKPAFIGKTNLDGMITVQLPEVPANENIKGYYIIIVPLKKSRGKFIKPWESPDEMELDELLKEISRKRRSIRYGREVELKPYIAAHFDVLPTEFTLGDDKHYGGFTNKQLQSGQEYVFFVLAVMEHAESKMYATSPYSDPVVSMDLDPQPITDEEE

[2] = target: T2, PTPRZ1 expressed on cells (human, UniProt P23471 25-2315); test: cell surface interaction assay: streptavidin-tetramerized biotinylated ECD on transfected cells, immunofluorescence
T2 construct: whole, on cells
Description: (§1) FIG. 3H is a schematic showing the design of the cell surface interaction assay.

PTPRG expressed on cells = target: T3, PTPRG expressed on cells (human, UniProt P23470 20-1445); test: cell surface interaction assay: query ECD tetramerised with fluorescent streptavidin on transfected cells, immunofluorescence
T3 construct: whole, on cells
Description: as §1
(§2) Experiments shown are representative of two independent assays. […] Scale bar=50 μm.

PTPRT expressed on cells = target: T4, PTPRT expressed on cells (human, UniProt O14522 26-1441); test: as above
T4 construct: whole, on cells
T4 sequence (looked up): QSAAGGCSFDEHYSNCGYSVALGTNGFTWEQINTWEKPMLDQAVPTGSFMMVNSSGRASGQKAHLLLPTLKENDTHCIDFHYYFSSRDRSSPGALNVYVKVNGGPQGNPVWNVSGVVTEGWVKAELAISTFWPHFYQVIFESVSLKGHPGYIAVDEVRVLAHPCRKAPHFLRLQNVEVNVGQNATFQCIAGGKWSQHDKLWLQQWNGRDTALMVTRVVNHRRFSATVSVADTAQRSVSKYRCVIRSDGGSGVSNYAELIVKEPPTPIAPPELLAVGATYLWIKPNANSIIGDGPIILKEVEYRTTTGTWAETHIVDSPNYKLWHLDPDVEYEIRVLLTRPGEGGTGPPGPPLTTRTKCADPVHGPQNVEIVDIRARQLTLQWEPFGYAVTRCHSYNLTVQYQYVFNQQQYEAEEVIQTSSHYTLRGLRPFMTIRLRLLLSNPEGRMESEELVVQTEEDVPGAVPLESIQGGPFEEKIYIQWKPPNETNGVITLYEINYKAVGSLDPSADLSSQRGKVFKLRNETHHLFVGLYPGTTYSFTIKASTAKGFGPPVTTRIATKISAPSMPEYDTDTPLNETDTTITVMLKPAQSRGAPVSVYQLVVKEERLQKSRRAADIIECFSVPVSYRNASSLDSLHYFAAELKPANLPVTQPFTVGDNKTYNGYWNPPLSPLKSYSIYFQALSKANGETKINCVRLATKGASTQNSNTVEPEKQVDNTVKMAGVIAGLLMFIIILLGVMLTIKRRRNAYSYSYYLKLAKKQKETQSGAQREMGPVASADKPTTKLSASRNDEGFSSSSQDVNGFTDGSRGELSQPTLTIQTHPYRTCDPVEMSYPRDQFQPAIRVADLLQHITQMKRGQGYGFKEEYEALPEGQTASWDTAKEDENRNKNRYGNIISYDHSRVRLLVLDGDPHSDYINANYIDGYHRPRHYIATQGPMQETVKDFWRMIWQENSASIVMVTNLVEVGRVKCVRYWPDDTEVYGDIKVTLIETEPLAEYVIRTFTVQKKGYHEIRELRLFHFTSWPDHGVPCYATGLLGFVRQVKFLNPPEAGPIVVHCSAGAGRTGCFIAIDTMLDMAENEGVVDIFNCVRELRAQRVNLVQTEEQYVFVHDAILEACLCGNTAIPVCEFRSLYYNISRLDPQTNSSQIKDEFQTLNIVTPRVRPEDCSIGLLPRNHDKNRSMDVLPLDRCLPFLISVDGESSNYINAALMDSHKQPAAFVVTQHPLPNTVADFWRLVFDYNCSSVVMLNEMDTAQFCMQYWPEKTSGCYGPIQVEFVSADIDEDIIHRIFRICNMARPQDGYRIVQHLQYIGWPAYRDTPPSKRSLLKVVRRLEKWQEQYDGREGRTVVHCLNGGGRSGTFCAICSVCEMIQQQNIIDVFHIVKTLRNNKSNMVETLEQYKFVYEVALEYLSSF
Description: as §1, §2

[3] = target: T2, PTPRZ1 expressed on cells; test: as above
Description: as §1, §2

T2 sequence (P23471 25-2315): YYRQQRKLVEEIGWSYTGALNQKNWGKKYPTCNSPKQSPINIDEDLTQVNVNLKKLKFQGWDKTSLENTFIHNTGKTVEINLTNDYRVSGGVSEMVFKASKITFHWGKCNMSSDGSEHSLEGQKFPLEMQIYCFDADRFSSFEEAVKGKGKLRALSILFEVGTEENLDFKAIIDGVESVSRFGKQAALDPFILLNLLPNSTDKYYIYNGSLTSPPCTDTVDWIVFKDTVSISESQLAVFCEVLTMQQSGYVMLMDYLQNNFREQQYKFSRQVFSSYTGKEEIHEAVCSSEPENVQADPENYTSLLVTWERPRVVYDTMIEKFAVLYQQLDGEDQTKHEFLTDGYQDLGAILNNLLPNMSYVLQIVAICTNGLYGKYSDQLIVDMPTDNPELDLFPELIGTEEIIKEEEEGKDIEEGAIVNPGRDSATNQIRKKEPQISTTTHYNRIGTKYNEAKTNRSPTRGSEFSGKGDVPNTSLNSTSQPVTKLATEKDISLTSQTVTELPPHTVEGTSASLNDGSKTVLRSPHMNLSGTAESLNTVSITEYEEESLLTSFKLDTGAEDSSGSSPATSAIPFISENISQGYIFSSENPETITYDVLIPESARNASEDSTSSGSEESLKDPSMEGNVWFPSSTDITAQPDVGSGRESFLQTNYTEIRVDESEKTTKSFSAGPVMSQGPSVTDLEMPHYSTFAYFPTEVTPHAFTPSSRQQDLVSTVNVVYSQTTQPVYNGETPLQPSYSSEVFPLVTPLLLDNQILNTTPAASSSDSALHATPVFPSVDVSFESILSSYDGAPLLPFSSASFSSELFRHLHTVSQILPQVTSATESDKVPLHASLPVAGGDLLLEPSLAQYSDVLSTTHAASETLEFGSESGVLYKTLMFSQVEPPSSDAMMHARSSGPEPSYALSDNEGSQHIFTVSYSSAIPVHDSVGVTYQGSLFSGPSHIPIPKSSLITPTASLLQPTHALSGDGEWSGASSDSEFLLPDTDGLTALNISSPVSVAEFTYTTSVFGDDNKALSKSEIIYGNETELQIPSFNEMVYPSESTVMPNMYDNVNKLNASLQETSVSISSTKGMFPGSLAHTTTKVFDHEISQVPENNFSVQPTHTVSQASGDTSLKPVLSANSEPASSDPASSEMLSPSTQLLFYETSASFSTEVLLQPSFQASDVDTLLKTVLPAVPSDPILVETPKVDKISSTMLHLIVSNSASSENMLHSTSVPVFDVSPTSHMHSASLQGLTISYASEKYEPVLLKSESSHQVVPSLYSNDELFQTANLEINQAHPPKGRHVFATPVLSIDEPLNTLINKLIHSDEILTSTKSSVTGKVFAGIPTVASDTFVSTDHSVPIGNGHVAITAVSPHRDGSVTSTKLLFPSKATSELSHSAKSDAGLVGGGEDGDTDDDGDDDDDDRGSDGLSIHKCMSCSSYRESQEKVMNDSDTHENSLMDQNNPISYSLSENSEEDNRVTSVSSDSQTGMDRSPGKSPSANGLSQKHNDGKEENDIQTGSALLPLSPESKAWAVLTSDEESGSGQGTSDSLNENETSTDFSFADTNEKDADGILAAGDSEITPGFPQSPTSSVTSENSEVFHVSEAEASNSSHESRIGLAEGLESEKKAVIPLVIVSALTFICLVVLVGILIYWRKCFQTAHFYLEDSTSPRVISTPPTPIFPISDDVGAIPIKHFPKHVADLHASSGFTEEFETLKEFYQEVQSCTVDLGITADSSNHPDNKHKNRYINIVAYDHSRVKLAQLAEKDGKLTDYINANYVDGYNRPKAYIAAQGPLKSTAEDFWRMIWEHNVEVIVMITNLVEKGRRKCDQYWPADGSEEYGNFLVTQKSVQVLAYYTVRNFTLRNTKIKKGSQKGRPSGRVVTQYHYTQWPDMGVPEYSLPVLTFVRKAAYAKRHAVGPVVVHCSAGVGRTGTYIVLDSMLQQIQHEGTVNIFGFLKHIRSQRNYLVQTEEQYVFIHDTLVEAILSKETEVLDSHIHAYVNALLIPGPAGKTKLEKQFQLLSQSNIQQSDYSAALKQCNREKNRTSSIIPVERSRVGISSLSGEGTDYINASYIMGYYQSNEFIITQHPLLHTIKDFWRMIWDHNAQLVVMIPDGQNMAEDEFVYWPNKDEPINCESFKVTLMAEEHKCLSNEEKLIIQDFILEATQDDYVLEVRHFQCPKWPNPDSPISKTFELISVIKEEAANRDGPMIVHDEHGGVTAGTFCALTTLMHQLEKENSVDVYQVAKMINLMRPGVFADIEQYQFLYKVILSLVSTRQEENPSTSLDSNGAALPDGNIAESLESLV
T3 sequence (P23470 20-1445): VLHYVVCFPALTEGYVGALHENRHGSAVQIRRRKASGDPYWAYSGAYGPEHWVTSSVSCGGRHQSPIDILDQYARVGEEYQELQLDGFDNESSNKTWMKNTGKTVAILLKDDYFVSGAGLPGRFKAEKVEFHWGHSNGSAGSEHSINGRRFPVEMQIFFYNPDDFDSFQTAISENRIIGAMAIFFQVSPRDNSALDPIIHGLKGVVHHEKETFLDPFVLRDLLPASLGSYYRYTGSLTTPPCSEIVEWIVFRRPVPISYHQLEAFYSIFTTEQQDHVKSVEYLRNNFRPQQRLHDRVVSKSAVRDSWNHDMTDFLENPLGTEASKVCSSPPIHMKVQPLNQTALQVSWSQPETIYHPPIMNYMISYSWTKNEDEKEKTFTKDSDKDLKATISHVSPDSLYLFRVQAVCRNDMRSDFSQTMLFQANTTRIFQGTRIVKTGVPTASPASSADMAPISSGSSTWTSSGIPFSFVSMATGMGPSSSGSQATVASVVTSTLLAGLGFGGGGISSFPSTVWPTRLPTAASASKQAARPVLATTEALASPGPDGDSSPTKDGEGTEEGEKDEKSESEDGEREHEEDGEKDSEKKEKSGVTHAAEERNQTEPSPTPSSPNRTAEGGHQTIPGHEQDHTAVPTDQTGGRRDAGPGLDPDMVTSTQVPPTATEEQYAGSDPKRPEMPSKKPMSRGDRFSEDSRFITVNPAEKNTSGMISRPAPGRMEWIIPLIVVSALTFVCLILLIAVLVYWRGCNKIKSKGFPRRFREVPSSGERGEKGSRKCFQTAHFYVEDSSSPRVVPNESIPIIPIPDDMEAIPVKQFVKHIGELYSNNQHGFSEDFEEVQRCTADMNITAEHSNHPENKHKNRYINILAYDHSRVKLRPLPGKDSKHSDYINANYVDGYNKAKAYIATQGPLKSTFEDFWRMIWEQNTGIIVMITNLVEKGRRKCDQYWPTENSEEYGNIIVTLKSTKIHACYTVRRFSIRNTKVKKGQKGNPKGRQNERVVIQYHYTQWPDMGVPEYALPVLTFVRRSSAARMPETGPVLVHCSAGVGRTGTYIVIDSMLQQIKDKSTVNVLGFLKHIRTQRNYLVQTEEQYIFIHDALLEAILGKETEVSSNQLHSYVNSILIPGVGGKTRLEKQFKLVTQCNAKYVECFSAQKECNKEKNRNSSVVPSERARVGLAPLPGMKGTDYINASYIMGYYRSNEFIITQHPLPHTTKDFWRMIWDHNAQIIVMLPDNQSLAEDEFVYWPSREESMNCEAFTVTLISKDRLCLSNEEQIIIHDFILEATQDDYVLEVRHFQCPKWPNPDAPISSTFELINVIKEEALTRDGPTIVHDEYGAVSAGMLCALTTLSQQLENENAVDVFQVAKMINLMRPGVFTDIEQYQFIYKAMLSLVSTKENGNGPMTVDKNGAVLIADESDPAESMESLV

B1: LRRC4B extracellular domain (receptor, human, UniProt Q9NT99 36-576, looked up)
chain: AGGGGVAVTSAAGGGSPPATSCPVACSCSNQASRVICTRRDLAEVPASIPVNTRYLNLQENGIQVIRTDTFKHLRHLEILQLSKNLVRKIEVGAFNGLPSLNTLELFDNRLTTVPTQAFEYLSKLRELWLRNNPIESIPSYAFNRVPSLRRLDLGELKRLEYISEAAFEGLVNLRYLNLGMCNLKDIPNLTALVRLEELELSGNRLDLIRPGSFQGLTSLRKLWLMHAQVATIERNAFDDLKSLEELNLSHNNLMSLPHDLFTPLHRLERVHLNHNPWHCNCDVLWLSWWLKETVPSNTTCCARCHAPAGLKGRYIGELDQSHFTCYAPVIVEPPTDLNVTEGMAAELKCRTGTSMTSVNWLTPNGTLMTHGSYRVRISVLHDGTLNFTNVTVQDTGQYTCMVTNSAGNTTASATLNVSAVDPVAAGGTGSGGGGPGGSGGVGGGSGGYTYFTTVTVETLETQPGEEALQPRGTEKEPPGPTTDGVWGGGRPGDAAGPASSSTTAPAPRSSRPTEKAFTVPITDVTENALKDLDDVMKTTK
notes: extracellular domain; ECD-Fc prey; also called NGL-3; netrin-G ligand-3
Q: Does B1 bind [1]?
A: Result: no binding

B2: CNTN1 extracellular domain (receptor, human, UniProt Q12860 21-993, looked up)
chain: EFTWYRRYGHGVSEEDKGFGPIFEEQPINTIYPEESLEGKVSLNCRARASPFPVYKWRMNNGDVDLTSDRYSMVGGNLVINNPDKQKDAGIYYCLASNNYGMVRSTEATLSFGYLDPFPPEERPEVRVKEGKGMVLLCDPPYHFPDDLSYRWLLNEFPVFITMDKRRFVSQTNGNLYIANVEASDKGNYSCFVSSPSITKSVFSKFIPLIPIPERTTKPYPADIVVQFKDVYALMGQNVTLECFALGNPVPDIRWRKVLEPMPSTAEISTSGAVLKIFNIQLEDEGIYECEAENIRGKDKHQARIYVQAFPEWVEHINDTEVDIGSDLYWPCVATGKPIPTIRWLKNGYAYHKGELRLYDVTFENAGMYQCIAENTYGAIYANAELKILALAPTFEMNPMKKKILAAKGGRVIIECKPKAAPKPKFSWSKGTEWLVNSSRILIWEDGSLEINNITRNDGGIYTCFAENNRGKANSTGTLVITDPTRIILAPINADITVGENATMQCAASFDPALDLTFVWSFNGYVIDFNKENIHYQRNFMLDSNGELLIRNAQLKHAGRYTCTAQTIVDNSSASADLVVRGPPGPPGGLRIEDIRATSVALTWSRGSDNHSPISKYTIQTKTILSDDWKDAKTDPPIIEGNMEAARAVDLIPWMEYEFRVVATNTLGRGEPSIPSNRIKTDGAAPNVAPSDVGGGGGRNRELTITWAPLSREYHYGNNFGYIVAFKPFDGEEWKKVTVTNPDTGRYVHKDETMSPSTAFQVKVKAFNNKGDGPYSLVAVINSAQDAPSEAPTEVGVKVLSSSEISVHWEHVLEKIVESYQIRYWAAHDKEEAANRVQVTSQEYSARLENLLPDTQYFIEVGACNSAGCGPPSDMIEAFTKKAPPSQPPRIISSVRSGSRYIITWDHVVALSNESTVTGYKVLYRPDGQHDGKLYSTHKHSIEVPIPRDGEYVVEVRAHSDGGDGVVSQVKIS
notes: extracellular domain; Streptavidin tetramer in cell assays; ECD-Fc in SPR; also called contactin 1
Q: Does B2 bind [2]?
A: Result: binds

B3: LRFN5 extracellular domain (receptor, human, UniProt Q96NI6 18-529, looked up)
chain: QICPKRCVCQILSPNLATLCAKKGLLFVPPNIDRRTVELRLADNFVTNIKRKDFANMTSLVDLTLSRNTISFITPHAFADLRNLRALHLNSNRLTKITNDMFSGLSNLHHLILNNNQLTLISSTAFDDVFALEELDLSYNNLETIPWDAVEKMVSLHTLSLDHNMIDNIPKGTFSHLHKMTRLDVTSNKLQKLPPDPLFQRAQVLATSGIISPSTFALSFGGNPLHCNCELLWLRRLSREDDLETCASPPLLTGRYFWSIPEEEFLCEPPLITRHTHEMRVLEGQRATLRCKARGDPEPAIHWISPEGKLISNATRSLVYDNGTLDILITTVKDTGAFTCIASNPAGEATQIVDLHIIKLPHLLNSTNHIHEPDPGSSDISTSTKSGSNTSSSNGDTKLSQDKIVVAEATSSTALLKFNFQRNIPGIRMFQIQYNGTYDDTLVYRMIPPTSKTFLVNNLAAGTMYDLCVLAIYDDGITSLTATRVVGCIQFTTEQDYVRCHFMQSQFLGGTM
notes: extracellular domain; Streptavidin tetramer in cell assay; ECD-Fc prey in the variant screen; also called LFRN5
Q: Which results are given for B3?
A: binding result (PTPRG expressed on cells): no binding; binding result (PTPRT expressed on cells): no binding; binding result [3]: no binding
